Data published in patent publication US20050136044A1, “Butyrylcholinesterase variants that alter the activity of chemotherapeutic agents” (priority 2003, published 2005).
Substitutions are numbered along the chain they refer to. Names may count otherwise. “And” between values parts separate entries of the source, which are not always exact repeats. Equal values may be shown once. “Also recorded” adds a separate entry of the source. Read-outs that look alike come from different tables or passages of the source.

How the values were obtained:
[1] = tested on: SW48 colon carcinoma cells; assay: MTT cytotoxicity assay of CPT-11 activated by BChE variants; conditions: CPT-11 at 4 mM incubated 72 hours with enzyme, cells exposed at 0.5 mM for 72 hours, versus mock
Protocol: Clinically relevant concentrations of CPT-11 (0.5-10 mM) were exposed to BChE variants for 24-72 hours at 37° C. Briefly, CPT-11 at 4 mM was incubated for 72 hours with expressed wild-type BChE, the 6-6 variant, or F227A/L286Q variant. SW48 colon carcinoma cells were exposed to the activated CPT-11 at a concentration of 0.5 mM for 72 hours and cell viability measured by the MTT method. The MTT (3-(4,5-dimethylthiazolyl-2)-2,5-diphenyltetrazolium bromide) assay is commercially available and can be used to measure cell viability based on the ability of a cell to reduce a redox sensitive dye. Note the 6-6 variant is a quadruple mutant referenced as A328W/Y332M/S287G/F227A (SEQ ID NO: 16) in the nomenclature used throughout to describe variants. The 6-6 variant contains the following codons at variant positions: GCG encodes alanine at amino acid position 227, GGT encodes glycine at amino acid position 287, ATG encodes methionine at amino acid position 332, and TGG encodes tryptophane at amino acid position 328.

[2] = CPT-11 conversion to SN-38, fluorescent HPLC detection, conditioned media of transiently expressed BChE variants; format: biochemical; conditions: for Fold improvement in CPT-11 conversion: compared to wild-type butyrylcholinesterase, conditioned media exposed to 20 mM CPT-11 for 72 hours at 37° C., SN-38 by HPLC, conservative values; for CPT-11 conversion to SN-38 (SN-38 formation by HPLC), in words: conditioned media, 20 mM CPT-11, 72 hours, 37° C., versus mock / wild-type
Protocol: Butyrylcholinesterase variants were assayed for CPT-11 conversion activity using fluorescent High Performance Liquid Chromotography (HPLC) detection of SN-38 formation as described in Dodds and Rivory, Mol. Pharmacol. 56: 1346-1353 (1999), which is incorporated herein by reference. Briefly, conditioned media from transiently expressed BChE variants were exposed to 20 mM CPT-11 for 72 hours at 37° C. and analyzed by HPLC for SN-38 formation (peak at about 4 minutes column retention time).

[3] = cited from earlier work
[4] = cited from earlier work; for Km: Humerickhouse et al. 2000, read-out: Km (CPT-11 conversion)
CD20 = biological target: T1, CD20 (human, UniProt P11836 1-297); assay: method not stated
T1 construct: whole, on cells; also called CD20 cell surface antigen; CD20 on SKW 6.4 human B lymphoma cells
T1 sequence (looked up): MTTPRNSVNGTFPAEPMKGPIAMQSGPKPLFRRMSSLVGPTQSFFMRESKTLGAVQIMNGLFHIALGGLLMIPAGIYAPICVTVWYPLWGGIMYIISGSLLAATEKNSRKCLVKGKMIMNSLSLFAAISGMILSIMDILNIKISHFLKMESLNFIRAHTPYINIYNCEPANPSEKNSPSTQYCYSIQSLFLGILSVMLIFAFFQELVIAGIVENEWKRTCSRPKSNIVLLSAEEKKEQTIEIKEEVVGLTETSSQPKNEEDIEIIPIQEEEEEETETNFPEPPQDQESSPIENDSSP

[5] = BChE-mediated CPT-11 hydrolysis, SN38 quantitated by reverse-phase HPLC with fluorescence detection; Km by Hofstee plot; format: biochemical; conditions: for increase in CPT-11 hydrolysis over wild-type BChE: SN38 peak AUC, wild type 20 μg, BChE.4-1 0.05 μg; for improvement in the Km for CPT-11: versus wild-type / native serum BChE
Protocol: BChE plasmid variants were expressed transiently in the human embryonic kidney cell line 293T and assayed for activity at 72 hours post-transfection. Primary screening of variants was performed by indirect measurement of enzymatic activation of CPT-11 (FIG. 2) in SW48 colon carcinoma cell cytotoxicity assays. […] Functional hits identified in these assays were characterized by sequence analysis of the corresponding DNA from the original preps. […] Enzyme was incubated at 37° C. for 24 hours with CPT-11 over a range of concentrations from 1-80 μM. […] Velocity (v) is in light absorbance units at 540 nm. Substrate concentration [s] is μM CPT-11.
Samples were acidified and resolved by reverse-phase HPLC on a NovaPak C18 column to separate SN38 from unactivated CPT-11. SN38 peak area under the curve (AUC) was used to compare CPT-11 activation by the wild-type enzyme to the optimized BChE.4-1 variant.

## F227A/L286Q
[1]
  CPT-11 mediated cytotoxicity in SW48 colon carcinoma cells: increased tumor cell cytotoxicity
[2]
  Fold improvement in CPT-11 conversion: >10 fold
  CPT-11 conversion to SN-38 (SN-38 formation by HPLC), in words: increased CPT-11 conversion to SN-38

## F227A/L286H
[2]
  Fold improvement in CPT-11 conversion: >35 fold
  CPT-11 conversion to SN-38 (SN-38 formation by HPLC), in words: increased CPT-11 conversion to SN-38

## CCc1c2c(nc3ccc(OC(=O)N4CCC(N5CCCCC5)CC4)cc13)-c1cc3c(c(=O)n1C2)COC(=O)[C@]3(O)CC [CPT-11, 7-ethyl-10-[4-(1-piperidino)-1-piperidine]carbonyloxycamptothecin]
[3]; patients treated with 200 mg/m2 CPT-11, for at least 24 hours, Ducreux et al. 2003
  plasma concentrations of CPT-11: above 0.1 μM
[3]; single agent at up to 500 mg/m^2
  plasma peak concentration versus dose: dose-proportional

## hCE-1
[4]
  Km: 43 µM

## F227A/L286S
[2]
  Fold improvement in CPT-11 conversion: >50 fold
  CPT-11 conversion to SN-38 (SN-38 formation by HPLC), in words: significant conversion; also recorded: increased CPT-11 conversion to SN-38
[2]; listed as F227A/L268S
  Fold improvement in CPT-11 conversion: ≥ 50 fold

B1: AME133 Fab (humanized anti-CD20 with fully human germline framework regions) (Fab, V domains shown)
VH: EVQLVQSGAEVKKPGESLKISCKGSGRTFTSYNMHWVRQMPGKGLEWMGAIYPLTGDTSYNQKSKLQVTISADKSISTAYLQWSSLKASDTAMYYCARSTYVGGDWQFDVWGKGTTVTVSS
VL: EIVLTQSPGTLSLSPGERATLSCRASSSVPYIHWYQQKPGQAPRLLIYATSALASGIPDRFSGSGSGTDFTLTISRLEPEDFAVYYCQQWLSNPPTFGQGTKLEIKR
notes: also called monovalent Fab
CD20
  Kd: 1 nM

B2: F227A (protein)
chain: EDDIIIATKNGKVRGMNLTVFGGTVTAFLGIPYAQPPLGRLRFKKPQSLTKWSDIWNATKYANSCCQNIDQSFPGFHGSEMWNPNTDLSEDCLYLNVWIPAPKPKNATVLIWIYGGGFQTGTSSLHVYDGKFLARVERVIVVSMNYRVGALGFLALPGNPEAPGNMGLFDQQLALQWVQKNIAAFGGNPKSVTLFGESAGAASVSLHLLSPGSHSLFTRAILQSGSXNAPWAVTSLYEARNRTLNLAKLTGCSRENETEIIKCLRNKDPQEILLNEAFVVPYGTPLSVNFGPTVDGDFLTDMPDILLELGQFKKTQILVGVNKDEGTAFLVYGAPGFSKDNNSIITRKEFQEGLKIFFPGVSEFGKESILFHYTDWVDDQRPENYREALGDVVGDYNFICPALEFTKKFSEWGNNAFFYYFEHRSSKLPWPEWMGVMHGYEIEFVFGLPLERRDNYTKAEEILSRSIVKRWANFAKYGNPNETQNNSTSWPVFKSTEQKYLTLNTESTRIMTKLRAQQCRFWTSFFPKVLEMTGNIDEAEWEWKAGFHRWNNYMMDWKNQFNDYTSKKESCVGL
modifications: synthetic butyrylcholinesterase variant; VARIANT 227: Xaa = Ala
[2]
  CPT-11 conversion to SN-38 (SN-38 formation by HPLC), in words: produced a small amount of SN-38; also recorded: increased CPT-11 conversion to SN-38

B3: 4-1 variant (protein)
chain: B2 chain with H77F, P285N, V331A
modifications: synthetic butyrylcholinesterase variant; VARIANT 227: Xaa = Ala
[5]; 37° C., 24 hours, CPT-11 1-80 μM, Hofstee plot
  Km: ~7 µM and 6.9 µM
[5]; 37° C., 24 hours
  increase in CPT-11 hydrolysis over wild-type BChE: > 3000 fold
[5]; 37° C., 24 hours, listed as H77F, F227A, P285N, V331A
  increase in CPT-11 hydrolysis over wild-type BChE: at least a three thousand-fold
[5]; 37° C., 24 hours, listed as SEQ ID NO: 180
  increase in CPT-11 hydrolysis over wild-type BChE: at least a three thousand-fold
[5]
  improvement in the Km for CPT-11: 5-6 fold
[5]; listed as BChE variant 4-1
  improvement in the Km for CPT-11: 5-6 fold and > 5 fold

B4: F227A/S287P (protein)
chain: B2 chain with X227A, S287X
modifications: synthetic butyrylcholinesterase variant; VARIANT 227: Xaa = Ala; VARIANT 287: Xaa = Pr0
[2]
  Fold improvement in CPT-11 conversion: >6 fold
  CPT-11 conversion to SN-38 (SN-38 formation by HPLC), in words: increased CPT-11 conversion to SN-38

B5: 6-6 variant (protein)
chain: B2 chain with X227A, S287G, A328W, Y332M
modifications: synthetic butyrylcholinesterase variant
[1]
  CPT-11 mediated cytotoxicity in SW48 colon carcinoma cells: increased tumor cell cytotoxicity

B6: F227A/T284A (protein)
chain: B2 chain with T284X
modifications: synthetic butyrylcholinesterase variant; VARIANT 227: Xaa = Ala; VARIANT 284: Xaa = Ala
[2]
  Fold improvement in CPT-11 conversion: >7 fold
  CPT-11 conversion to SN-38 (SN-38 formation by HPLC), in words: increased CPT-11 conversion to SN-38

B7: F227A/L286W (protein)
chain: B2 chain with X227A, L286W
modifications: synthetic butyrylcholinesterase variant
[2]
  Fold improvement in CPT-11 conversion: >42 fold
  CPT-11 conversion to SN-38 (SN-38 formation by HPLC), in words: increased CPT-11 conversion to SN-38

B8: hCE-2 (protein, UniProt O00748 27-559, looked up)
Cocaine esterase: QDSASPIRTTHTGQVLGSLVHVKGANAGVQTFLGIPFAKPPLGPLRFAPPEPPESWSGVRDGTTHPAMCLQDLTAVESEFLSQFNMTFPSDSMSEDCLYLSIYTPAHSHEGSNLPVMVWIHGGALVFGMASLYDGSMLAALENVVVVIIQYRLGVLGFFSTGDKHATGNWGYLDQVAALRWVQQNIAHFGGNPDRVTIFGESAGGTSVSSLVVSPISQGLFHGAIMESGVALLPGLIASSADVISTVVANLSACDQVDSEALVGCLRGKSKEEILAINKPFKMIPGVVDGVFLPRHPQELLASADFQPVPSIVGVNNNEFGWLIPKVMRIYDTQKEMDREASQAALQKMLTLLMLPPTFGDLLREEYIGDNGDPQTLQAQFQEMMADSMFVIPALQVAHFQCSRAPVYFYEFQHQPSWLKNIRPPHMKADHGDELPFVFRSFFGGNYIKFTEEEEQLSRKMMKYWANFARNGNPNGEGLPHWPLFDQEEQYLQLNLQPAVGRALKAHRLQFWKKALPQKIQELEEPEERHTEL
[4]; CPT-11 conversion
  catalytic efficiency relative to hCE-1: 60 fold
[4]
  Km: 3.4 µM
[4]; at pharmacologically relevant concentrations of the drug (~1-10 μM)
  rate of conversion of CPT-11 to SN38 relative to hCE-1: 25-30 fold
